# From US20240425571A1, “GLYCOPROTEIN A REPETITIONS PREDOMINANT (GARP)-BINDING ANTIBODIES AND USES THEREOF” (OHIO STATE INNOVATION FOUNDATION, priority 2021, published 2024)
# Changes are numbered by the printed parent chain.
# T1: antigen (Homo sapiens, UniProt Q14392)
# T1 sequence (Q14392 20-662): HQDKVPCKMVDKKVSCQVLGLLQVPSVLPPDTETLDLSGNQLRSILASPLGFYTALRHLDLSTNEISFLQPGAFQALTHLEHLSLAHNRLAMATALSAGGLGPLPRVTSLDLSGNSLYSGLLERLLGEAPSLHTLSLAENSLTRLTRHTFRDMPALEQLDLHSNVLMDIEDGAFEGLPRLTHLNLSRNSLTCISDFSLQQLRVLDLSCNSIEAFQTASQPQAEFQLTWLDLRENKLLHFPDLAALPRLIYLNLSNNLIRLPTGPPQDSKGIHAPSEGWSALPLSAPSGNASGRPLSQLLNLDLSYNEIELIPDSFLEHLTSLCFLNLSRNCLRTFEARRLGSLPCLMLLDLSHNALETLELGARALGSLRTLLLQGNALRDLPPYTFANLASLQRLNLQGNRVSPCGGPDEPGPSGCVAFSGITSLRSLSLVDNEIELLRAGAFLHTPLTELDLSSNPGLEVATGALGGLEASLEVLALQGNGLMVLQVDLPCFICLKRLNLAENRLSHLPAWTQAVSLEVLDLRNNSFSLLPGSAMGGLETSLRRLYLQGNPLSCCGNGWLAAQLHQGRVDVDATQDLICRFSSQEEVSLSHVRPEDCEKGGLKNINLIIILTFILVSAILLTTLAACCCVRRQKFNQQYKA
# B1: H1L2: humanized PIIO-1 antibody, VH SEQ ID NO: 20 and VL SEQ ID NO: 24 (antibody, V domains shown)
# VH: QVQLQESGPGLVKPSQTLSLTCTVSGYSITSDYAWNWIRQFPGNKLEWMGYISYSGSTSYTPSLKSRVTISRDTSKNHFSLKLSSVTAADTAVYYCAKSGGDYYGSSSYWYFDVWGQGTMVTVSS
# VL: DIVLTQSPSSLAVSLGERVTMNCKSSQSLLNSRSQKNYLAWYQQKPGQPPKLLIYGASTRGSGVPDRFSGSGSGTDFTLTISSVQAEDVAVYYCQNDHSYPFTFGQGTKLEIKR
# B2: H2L3: humanized PIIO-1 antibody, VH SEQ ID NO: 21 and VL SEQ ID NO: 22 (antibody, V domains shown)
# VH: B1 VH with V68I, S80F
# VL: B1 VL with L15A, N22S, Q106S
# B3: H4L1: humanized PIIO-1 antibody, VH SEQ ID NO: 18 and VL SEQ ID NO: 23 (antibody, V domains shown)
# VH: B1 VH with Q1D, V68I, S80F, K82Q, A89E, V93T, M120T
# VL: B1 VL with V19A, V84L
# B4: H3L2: humanized PIIO-1 antibody, VH SEQ ID NO: 19 and VL SEQ ID NO: 24 (antibody, V domains shown)
# VH: B1 VH with Q1D, V68I, S80F, V93T, M120T
# VL: B1 VL
# B5: H3L3: humanized PIIO-1 antibody, VH SEQ ID NO: 19 and VL SEQ ID NO: 22 (antibody, V domains shown)
# VH: B1 VH with Q1D, V68I, S80F, V93T, M120T
# VL: B1 VL with L15A, N22S, Q106S
# B6: H3L1: humanized PIIO-1 antibody, VH SEQ ID NO: 19 and VL SEQ ID NO: 23 (antibody, V domains shown)
# VH: B1 VH with Q1D, V68I, S80F, V93T, M120T
# VL: B1 VL with V19A, V84L
# B7: H4L3: humanized PIIO-1 antibody, VH SEQ ID NO: 18 and VL SEQ ID NO: 22 (antibody, V domains shown)
# VH: B1 VH with Q1D, V68I, S80F, K82Q, A89E, V93T, M120T
# VL: B1 VL with L15A, N22S, Q106S
# B8: H2L2: humanized PIIO-1 antibody, VH SEQ ID NO: 21 and VL SEQ ID NO: 24 (antibody, V domains shown)
# VH: B1 VH with V68I, S80F
# VL: B1 VL
# B9: H1L3: humanized PIIO-1 antibody, VH SEQ ID NO: 20 and VL SEQ ID NO: 22 (antibody, V domains shown)
# VH: B1 VH
# VL: B1 VL with L15A, N22S, Q106S
# B10: H4L2: humanized PIIO-1 antibody, VH SEQ ID NO: 18 and VL SEQ ID NO: 24 (antibody, V domains shown)
# VH: B1 VH with Q1D, V68I, S80F, K82Q, A89E, V93T, M120T
# VL: B1 VL
# Tests used:
# antigen = target: T1, antigen; experiment: Label-free kinetic binding assay on Gator
# Description: Affinity measurement. Label-free kinetic binding assay was performed on Gator (similar to Octet).
# Methods. Affinity was measured on Gator (ProbeLife, Palo Alto). In brief, the purified IgG sample was diluted in K buffer at 2 μg/ml, and the antigen was diluted at 5 μg/ml. The antibody-loaded anti-human Fc probes were dipped in antigen wells for 5 mins and then moved to K buffer wells for 5 mins. In the whole process, the sample plate was shaken at 1,000 rpm. The data analysis was carried out using Gator software (ProbeLife).
# [1] = Thermostability by DSF/SLS (UNcle); assay type: physicochemical
# Description: Developability Analysis for PIIO-1 humanization leads. Antibodies were analyzed for thermostability by DSF/SLS. Samples were submitted to the UNcle system (Unchained Labs) for analysis. A temperature ramp of 1° C./min was performed with monitoring from 20° C. to 95° C. for DSF and SLS. UNcle measures SLS at 266 nm and 473 nm. Tm and Tagg were calculated and analyzed by using the UNcle Analysis Software. DSF: Differential scanning fluorimetry; SLS: Static light scattering; Tm: Melting temperature; Tagg 266: Thermal aggregation when SLS at 266 nm; Tagg 473: Thermal aggregation when SLS at 473 nm. A summary is shown below in Table F:
# IgG is a multi-domain structure and each domain has its own melting Temperature (Tm). […] Fabs have Tm in a wide range, generally about 50-85° C., due to large sequence variation. Therefore, the Tm values measured by various analytical techniques are usually “apparent” transition temperatures rather than the real Tm for each domain. In the case of whole IgG, there are often 2-3 Tm values in DSF measurement, presenting some challenge in determining which Tm represents which domain.
# Tagg is the temperature at which SLS starts to detect aggregation particles. Tagg266 measures SLS at 266 nm, which is more sensitive and suitable to detect smaller aggregation particles. Tagg473 measures SLS at 473 nm and is better to detect larger particles.
# Baculovirus = Baculovirus (BV) ELISA for non-specific binding
# Description: Baculovirus (BV) ELISA was employed as a preliminary assay to evaluate antibody's potential nonspecific binding risk.
# In Baculovirus (BV) ELISA, the inventor used Rituxan Mab as reference. […] If a clone only has binding on BV, but not on 293 cells, it will be considered as having a low risk of non-specific binding.
# Methods—Baculovirus ELISA. Plates are coated with 50 μl of 1:500 diluted Baculovirus sample in PBS in each well. Plates are kept at 4° C. for overnight. The plates are washed with 300 μL of wash buffer ×3 and 200 μl blocking buffer (1% BSA) is added at RT for 60 min. Plates are washed with 300 μl of wash buffer ×3 and 100 μl of diluted Abs are added at different concentrations/well, followed by RT incubation for 1 hr. Plates are washed with 300 μl of wash buffer ×6 and 100 μl of 1:5000 HRP conjugated second Ab in PBS is added followed by RT incubation for 1 hr. The plates are washed with 300 μl of wash buffer ×6. Developing buffer is added and the plate is read.
# [2] = Non-reducing CE-SDS (heterogeneity); assay type: physicochemical
# Description: (§1) Analysis of the heterogeneity by Capillary Electrophoresis (CE). The sample was prepared in reducing and non-reducing labeling buffer before being submitted to the CE analysis. A summary of the Reducing-CE-SDS and Non-Reducing-CE-SDS results are shown in FIG. 13A/Table H and FIG. 13B/Table I, respectively: […]
# Ag(−) cell = experiment: FACS analysis with Ag(−) cell (non-specific binding); conditions: 5 ug/ml
# Description: Methods—FACS analysis. Cell preparation: Cell were harvested and washed with PBS+2% FBS for one time. Cell density was adjusted to 1.5E6/mL in PBS/2% FBS. Cell were added to 96 U-bottom well plates at 100 μL/well. Antibody samples preparation: Antibody in supernatant was adjusted to 10 μg/mL using PBS+2% FBS, with serial 5 times dilution performed to obtain 3 concentrations of antibody solution. The blank was PBS+2% FBS. Antibody solutions were placed into 96 U-bottom well plates at 100 μL/well in the same arranging pattern as the cell preparation. Incubation: The antibody samples (100 μl) were mixed with the cells (100 μl), and incubated at RT for 1 h, then centrifuged the plate for 3 min at 1000 rpm (swing bucket). The supernatant was pipetted and the cells were washed with PBS+2% FBS for one time. Incubation with the secondary antibody: Cy3-Conjugated AffiniPure Goat Anti-Human IgG was diluted 250× by PBS+2% FBS, and added to the 96 U-bottom well plate with 100 μl/well, then incubated at RT for 30 min. After that, the plate was centrifuged at 1000 rpm for 3 min and the supernatant was pipetted out. The cell was washed with PBS+2% FBS twice. Cells were re-suspended in 200 μl PBS+2% FBS and analyzed on FACS. The MFI of total live cells were used as binding signal.
# Methods—heat treatment. Culture supernatant was serial diluted to the indicated concentration of IgG with cell media and heated at 70° C. for 5 mins on a PCR machine, then quickly cooled down to room temperature.
# [3] = Aggregation potential by DLS analysis; assay type: physicochemical
# Description: Aggregation potential by DLS analysis. DLS was performed on UNcle system (Unchained Labs). DLS was measured at 25° C. Data was calculated and analyzed using UNcle Analysis Software. DLS: Dynamic light scattering PDI: Polydispersity index, PDI=(standard deviation/mean hydrodynamic radius).
# Dynamic Light Scattering (DLS) is used to detect aggregation in the antibody sample. “Mode diameter” is protein particle diameter and “mass percentage” is the amount of each size fraction in percentage. “PDI” is Polydispersity Index; the higher this index, the more polydispersity in the sample is. […] Peak 1 is the major peak and represents the IgG monomer. The inventor takes “Peak 1 mass percentage” and “PDI” value into consideration in selecting a lead.
# [4] = Reducing CE-SDS (heterogeneity); assay type: physicochemical
# Description: as §1
# [5] = IgG 2 μg/ml on anti-human Fc probes, antigen 5 μg/ml
# [6] = ramp 1° C./min, 20° C. to 95° C.
molecule,measurement,setting,value
B1,KD value compared with the chimeric,antigen,same KD value to the chimeric
same,Rmax,antigen; [5],0.885
same,koff,antigen; [5],0.000813
same,kon,antigen; [5],9.98E+04
same,thermostability compared with parental 4D3 chimeric antibody (Table F),[1],superior thermostability over the parental 4D3 chimeric antibody
same,SLS Tagg 266,[1]; SLS at 266 nm,78.8 °C
same,SLS Tagg 473,[1]; SLS at 473 nm,79.3 °C
same,aggregation risk,[1]; from Tagg266 and Tagg473 in SLS assay,very low aggregation risk
same,DSF TM2,[1]; [6],76.7 °C
same,DSF Tm1,[1]; [6],70.0 °C
same,DSF Tm3,[1]; [6],87.5 °C
same,"BV ELISA with purified IgG, raw BV binding data",Baculovirus; Ab. Conc. 0.15625 ug/ml,15.6
same,"BV ELISA with purified IgG, raw BV binding data",Baculovirus; Ab. Conc. 0.3125 ug/ml,15.4
same,"BV ELISA with purified IgG, raw BV binding data",Baculovirus; Ab. Conc. 0.625 ug/ml,23.5
same,"BV ELISA with purified IgG, raw BV binding data",Baculovirus; Ab. Conc. 1.25 ug/ml,26.6
same,"BV ELISA with purified IgG, raw BV binding data",Baculovirus; Ab. Conc. 2.5 ug/ml,39.6
same,"BV ELISA with purified IgG, raw BV binding data",Baculovirus; Ab. Conc. 5 ug/ml,38.1
same,"BV ELISA with purified IgG, raw BV binding data",Baculovirus; Ab. Conc. 10 ug/ml,102.3
same,"BV ELISA with purified IgG, raw BV binding data",Baculovirus; Ab. Conc. 20 ug/ml,253.4
same,BV-binding in words,"Baculovirus; purified antibodies, Rituxan as reference",a bit higher signal
same,Main Peak (%),[2],97.6%
same,OTHER (%),[2],2.4%
same,FACS with Ag(−) cell (MFI),Ag(−) cell; Heating,3.35
same,FACS with Ag(−) cell (MFI),Ag(−) cell; Non-Heating,3.24
same,comparison of humanized antibodies by Table G,[3],superior to huPIIO-1VH1VL1
same,Peak 1 Mass,[3]; DLS at 25° C.,99.94%
same,Peak 1 Mode Diameter,[3]; DLS at 25° C.,9.68 nm
same,Peak 1 PDI,[3]; DLS at 25° C.,0.361
same,Peak 2 Mass,[3]; DLS at 25° C.,0%
same,PDI compared with WT,[3]; listed as VH1VL2,slightly higher PDI than that of the chimeric clone
same,homogeneity (Table H),[4],superior homogeneity versus clone huPIIO-1VH2VL1
same,OTHER (%),[4]; Reducing-CE-SDS,0.9%
same,PK#1 (%),[4]; Reducing-CE-SDS,1.4%
same,PK#2 (%),[4]; Reducing-CE-SDS,29.1%
same,PK#3 (%),[4]; Reducing-CE-SDS,68.7%
B2,FACS with Ag(−) cell (MFI),Ag(−) cell; Heating,3.35
same,FACS with Ag(−) cell (MFI),Ag(−) cell; Non-Heating,3.18
B3,FACS with Ag(−) cell (MFI),Ag(−) cell; Heating,3.25
same,FACS with Ag(−) cell (MFI),Ag(−) cell; Non-Heating,3.11
B4,FACS with Ag(−) cell (MFI),Ag(−) cell; Heating,3.26
same,FACS with Ag(−) cell (MFI),Ag(−) cell; Non-Heating,3.37
B5,FACS with Ag(−) cell (MFI),Ag(−) cell; Heating,3.29
same,FACS with Ag(−) cell (MFI),Ag(−) cell; Non-Heating,3.16
B6,FACS with Ag(−) cell (MFI),Ag(−) cell; Heating,3.4
same,FACS with Ag(−) cell (MFI),Ag(−) cell; Non-Heating,3.28
B7,FACS with Ag(−) cell (MFI),Ag(−) cell; Heating,3.36
same,FACS with Ag(−) cell (MFI),Ag(−) cell; Non-Heating,3.27
B8,FACS with Ag(−) cell (MFI),Ag(−) cell; Non-Heating,3.24
B9,FACS with Ag(−) cell (MFI),Ag(−) cell; Heating,3.33
same,FACS with Ag(−) cell (MFI),Ag(−) cell; Non-Heating,3.22
B10,FACS with Ag(−) cell (MFI),Ag(−) cell; Heating,3.29
same,FACS with Ag(−) cell (MFI),Ag(−) cell; Non-Heating,3.26
